Experimental data: paper PMC4888959 (Molecular microbiology, 2015)

B1: EAL (MBP-tagged EAL domain of CsrD, residues 393–646) (domain or fragment, E. coli, UniProt P13518 393-646, looked up)
chain: GRGNVRWRTLIEQMLSRGGPRLYQKPAVTREGQVHHRELMCRIFDGNEEVSSAEYMPMVLQFGLSEEYDRLQISRLIPLLRYWPEENLAIQVTVESLIRPRFQRWLRDTLMQCEKSQRKRIIIELAEADVGQHISRLQPVIRLVNALGVRVAVNQAGLTLVSTSWIKELNVELLKLHPGLVRNIEKRTENQLLVQSLVEACSGTSTQVYATGVRSRSEWQTLIQRGVTGGQGDFFASSQPLDTNVKKYSQRYSV
B5: His-tagged EIIA^Glc (enzyme IIA^Glc of the glucose-specific PTS), unphosphorylated (natural protein, E. coli, UniProt P69783 1-169, looked up)
chain: MGLFDKLKSLVSDDKKDTGTIEIIAPLSGEIVNIEDVPDVVFAEKIVGDGIAIKPTGNKMVAPVDGTIGKIFETNHAFSIESDSGVELFVHFGIDTVELKGEGFKRIAEEGQRVKVGDTVIEFDLPLLEEKAKSTLTPVVISNMDEIKELIKLSGSVTVGETPVIRIKK

Assays:
[1] = target: B5; assay: SEC
[2] = target: the molecule itself; assay: SEC
[3] = target: B5; assay: pull-down
[4] = target: T1, CsrD^ΔHAMP (MBP-tagged CsrD residues 192–646) (E. coli, UniProt P13518 192-646); assay: pull-down
T1 sequence (looked up): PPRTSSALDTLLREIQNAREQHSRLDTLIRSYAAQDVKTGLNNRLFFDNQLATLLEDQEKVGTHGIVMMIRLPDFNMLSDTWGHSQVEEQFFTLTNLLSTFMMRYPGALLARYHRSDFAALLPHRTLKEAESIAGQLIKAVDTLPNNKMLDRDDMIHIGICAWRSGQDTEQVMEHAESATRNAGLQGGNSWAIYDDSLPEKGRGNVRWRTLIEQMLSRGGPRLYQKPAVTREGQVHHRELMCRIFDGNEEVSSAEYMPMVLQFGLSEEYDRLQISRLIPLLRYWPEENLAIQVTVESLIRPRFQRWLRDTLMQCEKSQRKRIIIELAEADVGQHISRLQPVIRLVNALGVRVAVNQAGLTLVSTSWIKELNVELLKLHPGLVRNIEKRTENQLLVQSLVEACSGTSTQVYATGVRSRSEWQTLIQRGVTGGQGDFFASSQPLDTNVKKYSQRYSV

[5] = target: B1; assay: pull-down

B1
stoichiometry N [1]: 1 EAL per EIIA^Glc

B2: CsrD^ΔEAL (MBP-tagged CsrD residues 156–385) (domain or fragment, E. coli, UniProt P13518 156-385, looked up)
chain: RWLQRQLAGQELLETRATRILNGERGSNVLGTIYEWPPRTSSALDTLLREIQNAREQHSRLDTLIRSYAAQDVKTGLNNRLFFDNQLATLLEDQEKVGTHGIVMMIRLPDFNMLSDTWGHSQVEEQFFTLTNLLSTFMMRYPGALLARYHRSDFAALLPHRTLKEAESIAGQLIKAVDTLPNNKMLDRDDMIHIGICAWRSGQDTEQVMEHAESATRNAGLQGGNSWAIY
stoichiometry N [2]: 4

B3: CsrD^ΔGGDEF (MBP-tagged CsrD residues 156–223 and 393–646) (domain or fragment, E. coli, UniProt P13518 156-223, looked up)
chain: RWLQRQLAGQELLETRATRILNGERGSNVLGTIYEWPPRTSSALDTLLREIQNAREQHSRLDTLIRSYGRGNVRWRTLIEQMLSRGGPRLYQKPAVTREGQVHHRELMCRIFDGNEEVSSAEYMPMVLQFGLSEEYDRLQISRLIPLLRYWPEENLAIQVTVESLIRPRFQRWLRDTLMQCEKSQRKRIIIELAEADVGQHISRLQPVIRLVNALGVRVAVNQAGLTLVSTSWIKELNVELLKLHPGLVRNIEKRTENQLLVQSLVEACSGTSTQVYATGVRSRSEWQTLIQRGVTGGQGDFFASSQPLDTNVKKYSQRYSV
stoichiometry N [2]: 4 | binding result [3]: binds

B4: CsrD^ΔTM (MBP-tagged CsrD residues 156–646, transmembrane domains replaced with MBP) (domain or fragment, E. coli, UniProt P13518 156-646, looked up)
chain: RWLQRQLAGQELLETRATRILNGERGSNVLGTIYEWPPRTSSALDTLLREIQNAREQHSRLDTLIRSYAAQDVKTGLNNRLFFDNQLATLLEDQEKVGTHGIVMMIRLPDFNMLSDTWGHSQVEEQFFTLTNLLSTFMMRYPGALLARYHRSDFAALLPHRTLKEAESIAGQLIKAVDTLPNNKMLDRDDMIHIGICAWRSGQDTEQVMEHAESATRNAGLQGGNSWAIYDDSLPEKGRGNVRWRTLIEQMLSRGGPRLYQKPAVTREGQVHHRELMCRIFDGNEEVSSAEYMPMVLQFGLSEEYDRLQISRLIPLLRYWPEENLAIQVTVESLIRPRFQRWLRDTLMQCEKSQRKRIIIELAEADVGQHISRLQPVIRLVNALGVRVAVNQAGLTLVSTSWIKELNVELLKLHPGLVRNIEKRTENQLLVQSLVEACSGTSTQVYATGVRSRSEWQTLIQRGVTGGQGDFFASSQPLDTNVKKYSQRYSV
stoichiometry N [2]: 4

B5
binding result [4]: binds | binding result [5]: binds
